Changes are numbered by the printed parent chain. In names and notes the source's numbering stands.
B1: N405Q (protein)
chain: GFGDVGALESLRGNADLAYILSMEPCGHCLIINNVNFCRESGLRTRTGSNIDCEKLRRRFSSLHFMVEVKGDLTAKKMVLALLELAQQDHGALDCCVVVILSHGCQASHLQFPGAVYGTDGCPVSVEKIVNIFNGTSCPSLGGKPKLFFIQACGGEQKDHGFEVASTSPEDESPGSNPEPDATPFQEGLRTFDQLDAISSLPTPSDIFVSYSTFPGFVSWRDPKSGSWYVETLDDIFEQWAHSEDLQSLLLRVANAVSVKGIYKQMPGCFQFLRKKLFFKTS
B2: N405Q-S144A (protein)
chain: B1 chain with S10A
B3: S307A (protein)
chain: B1 chain with S173A, Q271N
B4: S183A (protein)
chain: B1 chain with S49A, Q271N
B5: D330V (protein)
chain: B1 chain with D196V, Q271N
B6: D330A-S196A (protein)
chain: B1 chain with S62A, D196A, Q271N
B7: D330E (protein)
chain: B1 chain with D196E, Q271N
B8: S195A (protein)
chain: B1 chain with S61A, Q271N
B9: F406W (protein)
chain: B1 chain with Q271N, F272W
B10: D330G (protein)
chain: B1 chain with D196G, Q271N
B11: S196A (protein)
chain: B1 chain with S62A, Q271N
B12: F406Y (protein)
chain: B1 chain with Q271N, F272Y
B13: F406A (protein)
chain: B1 chain with Q271N, F272A
B14: N405Q-S196D (protein)
chain: B1 chain with S62D
B15: L329E (protein)
chain: B1 chain with L195E, Q271N
B16: D330A-S144A (protein)
chain: B1 chain with S10A, D196A, Q271N
B17: D330N (protein)
chain: B1 chain with D196N, Q271N
B18: D330A (protein)
chain: B1 chain with D196A, Q271N
B19: N405Q-S144D (protein)
chain: B1 chain with S10D
B20: T317A (protein)
chain: B1 chain with T183A, Q271N
B21: D330A-N405Q (protein)
chain: B1 chain with D196A
B22: D330A-S144D (protein)
chain: B1 chain with S10D, D196A, Q271N
B23: F404T (protein)
chain: B1 chain with F270T, Q271N
B24: F404Y (protein)
chain: B1 chain with F270Y, Q271N
B25: D330A-S183A (protein)
chain: B1 chain with S49A, D196A, Q271N
B26: D330S (protein)
chain: B1 chain with D196S, Q271N
B27: ^402GCFNF^406ISAQT: Caspase-9 homodimerization domain mutant (SEQ ID NOS 95 and 96) (Casp-10) (protein, UniProt P55211 1-416, looked up, variant G402I C403S F404A N405Q F406T)
chain: MDEADRRLLRRCRLRLVEELQVDQLWDALLSRELFRPHMIEDIQRAGSGSRRDQARQLIIDLETRGSQALPLFISCLEDTGQDMLASFLRTNRQAAKLSKPTLENLTPVVLRPEIRKPEVLRPETPRPVDIGSGGFGDVGALESLRGNADLAYILSMEPCGHCLIINNVNFCRESGLRTRTGSNIDCEKLRRRFSSLHFMVEVKGDLTAKKMVLALLELAQQDHGALDCCVVVILSHGCQASHLQFPGAVYGTDGCPVSVEKIVNIFNGTSCPSLGGKPKLFFIQACGGEQKDHGFEVASTSPEDESPGSNPEPDATPFQEGLRTFDQLDAISSLPTPSDIFVSYSTFPGFVSWRDPKSGSWYVETLDDIFEQWAHSEDLQSLLLRVANAVSVKGIYKQMPISAQTLRKKLFFKTS
B28: N405Qco: Caspase-9 mutant (protein, UniProt P55211 1-416, looked up, variant N405Q)
chain: B27 chain with I402G, S403C, A404F, T406F
modifications: codon-optimized
notes: Caspase-9 mutant
B29: N405Q-T3175 (protein, UniProt P55211 1-416, looked up, variant N405Q T317S)
chain: B27 chain with T317S, I402G, S403C, A404F, T406F
B30: N405Q-S144Aco (protein, UniProt P55211 1-416, looked up, variant N405Q S144A)
chain: B27 chain with S144A, I402G, S403C, A404F, T406F
modifications: codon optimized
B31: N405Q-T317Sco (protein, UniProt P55211 1-416, looked up, variant N405Q T317S)
chain: B27 chain with T317S, I402G, S403C, A404F, T406F

The molecules below were run on chimeric Caspase-9 polypeptide (assay: Caspase mutant classes and basal activity (Table 3)). Settings: class heading of Table 3.
Sequence of chimeric Caspase-9 polypeptide (as listed by the source, change not shown): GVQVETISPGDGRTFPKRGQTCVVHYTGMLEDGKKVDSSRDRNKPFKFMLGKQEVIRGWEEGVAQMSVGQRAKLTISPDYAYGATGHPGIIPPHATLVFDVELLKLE
Assay type: cell-based, human

Molecule	Basal Activity
B1	Decreased
B2	Decreased
B3	Decreased
B4	Decreased
B5	Decreased
B6	Decreased
B7	Decreased
B8	Decreased
B9	Decreased
B10	Decreased
B11	Decreased
B12	Decreased
B13	Decreased
B14	Decreased
B15	Decreased
B16	Decreased
B17	Decreased
B18	Decreased
B19	Decreased
B20	Decreased
B21	Decreased
B22	Decreased
B23	Decreased
B24	Decreased
B25	Decreased
B26	Decreased
B27	Decreased
B28	Decreased
B29	Decreased

Same assay, conditions: class heading of Table 3; ligand IC50

Molecule	IC50
B1	higher IC50
B2	higher IC50
B3	much higher
B4	higher IC50
B5	higher IC50
B6	higher IC50
B7	higher IC50
B8	higher IC50
B9	higher IC50
B10	higher IC50
B11	higher IC50
B12	higher IC50
B13	higher IC50
B14	higher IC50
B15	higher IC50
B16	higher IC50
B17	higher IC50
B18	higher IC50
B19	higher IC50
B20	higher IC50
B21	higher IC50
B22	higher IC50
B23	much higher
B24	higher IC50
B25	higher IC50
B26	higher IC50
B27	higher IC50
B28	higher IC50
B29	higher IC50

Same assay, conditions: class heading of Table 3; marked *, predicted

Molecule	Basal Activity
B30	Decreased
B31	Decreased
